The values that follow come from PMC8808172 (The Journal of Biological Chemistry, 2021).

T1: ClpX N-terminal zinc-binding domain (ClpXN; amino acids 1–55) (E. coli, UniProt P0A6H1 1-55)
T1 sequence (looked up): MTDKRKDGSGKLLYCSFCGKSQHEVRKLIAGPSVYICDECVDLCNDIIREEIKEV

B1: ClpX(L13D) (enzyme)
chain: not shown
B2: ClpX(L12S) (enzyme)
chain: not shown
B3: ClpX(H23A) (enzyme)
chain: not shown
B4: ClpX (WT) (enzyme)
chain: not shown
B5: ClpX(L13A) (enzyme)
chain: not shown
B6: ClpX(A30S) (enzyme)
chain: not shown

The data set “SEC” concerns the molecule itself. Kind of data set: SEC. For orientation: In gel filtration, larger molecules generally elute earlier.
Data set [1] has as its target T1, ClpX N-terminal zinc-binding domain …. Kind of data set: NMR titration.
The data set “ClpX (WT)” has as its target B4. Kind of data set: filter retention assay.
The data set “ClpX(A30S)” deals with B6. As to the kind of experiment: filter retention assay.

Broadly, the stoichiometry N is a count of units in the complex or per binding partner. On to B1, for which, in the data set “SEC”, the “stoichiometry N” value is 6. On to B2, for which, in the data set “SEC”, the “stoichiometry N” value was found to be 6. As for B3, the “stoichiometry N” value in “SEC” was 6. For B4, the “stoichiometry N” value in the data set “SEC” turned out to be 6. As to MKCPVCHQGEMVSGIKDIPYTFRGRKTVLKGIHG (domain or fragment, E. coli, UniProt Q46864 1-34, looked up) [MqsA_(1–34)], in data set [1], the binding result is reported as “binds”. On to MKCPVCHQGEMVSGIKDIPYTFRGRKTVLKGIHG (domain or fragment, E. coli, UniProt Q46864 1-34, looked up) [Gfp-MqsA_(1–34)], for which the binding result with ClpX (WT) and with ClpX(A30S) was “binds” each time. Turning to B5, the “stoichiometry N” value in the data set “SEC” was determined as 6. With B6, the “stoichiometry N” value in the data set “SEC” was 6.
